A short description of series [1]: COLO-205 xenograft model, percent body weight change. It counts as in vivo, mouse. To be noted: 5 mg/kg i.p. once weekly. The source says:
To evaluate antibody drug conjugates (ADCs) as single agents in an COLO-205 Colon AdenocarcinomaTumor Xonograft model, 40 athymic nude female mice age range 6-8 weeks were randomly separated into four separate groups, one vehicle control and three ADC treatments, then maintained individually with food/water ad libitum (see the following Table).
(§1) Animals were inoculated in the subcutaneous right flank with 5×10^6 colon adenocarcinoma tumor cells (COLO-205) in matrigel, mean tumor size was 175-225 mm^3 at study initiation. Animals were given either vehicle or one of the antibody drug conjugates (5 mg/kg) by intraperitoneal injection once weekly. Tumor volume and percent body weight change were determined once weekly until study termination. The study was terminated when the tumor in the vehicle control animal reached a mean tumor weight >1500 mm^3. SE refers to “standard error.”

Series [2] has as its system MDA-MB-231-STn Human Breast Tumor Xenograft. The series is described as follows: MDA-MB-231-STn human breast cancer xenograft model, tumor volume. It counts as in vivo, mouse. The conditions noted are these: 5 mg/kg i.p. once weekly. An excerpt:
To evaluate antibody drug conjugates (ADCs) as single agents in an MDA-MB-231-STn Human Breast Tumor Xenograft model, 40 ICR SCID female mice age range 6-8 weeks were randomly separated into four separate groups, one vehicle control and three ADC treatments, then maintained individually with food/water ad libitum (see the following Table).
Animals were inoculated in the subcutaneous right flank with 5×10^6 breast tumor cells (MDA-MB-231-STn) in matrigel, mean tumor size was 175-225 mm^3 at study initiation. Animals were given either vehicle or antibody drug conjugates (5 mg/kg) by intraperitoneal injection once weekly. Tumor volume and percent body weight change were determined once weekly until study termination. The study was terminated when the tumor in the vehicle control animal reached a mean tumor weight ≥1500 mm^3. SE refers to “standard error.”

Series [3] in a line: Immunohistochemical staining of normal and tumor tissues (TMA). The conditions noted are these: tissue microarray slides. As for the experimental part: The procedure for IHC staining includes the following steps: a). obtain tissue samples and prepare specimen slides; b). prepare tissue samples for IHC staining; i. perform antigen retrieval with Diva antigen retrieval solution for 30 minutes at 95° C.; or treat slides with 250 mU/mL neuraminidase in 50 mM sodium acetate, pH 5.5 for 2.5 hours at 37° C.; ii. rinse all treated slides twice with Tris-buffered saline auto-wash (TBS-AW); iii. apply Sniper protein block to all slides for 20 minutes to reduce non-specific binding and rinse twice in TBS-AW; c). perform antibody staining; i. incubate the pretreated slides with the primary antibody. For example, anti-STn antibody S3F is applied (10 or 30 ug/mL) for 60 minutes; ii. rinse twice in TBS-AW; iii. block endogenous peroxidase with peroxidase 1 for 10 minutes; iv. rinse twice with TBS-AW; v. incubate the slides with biotinylated goat anti-mouse IgG in DaVinci Green at 1:500 dilution for 30 minutes; vi. rinse twice with TBS-AW. d). develop the staining; i. add ABC Elite and incubate the slides for 30 minutes; ii. rinse twice with TBS-AW; iii. apply Sigma Fast DAB solution for 5 minutes followed by a rinse in distilled water; iv. counterstain and coverslip the slides for analysis. […]

The subject of series [4] is COLO-205 Human Colon Adenocarcinoma Tumor Xenograft. The series is described as follows: COLO-205 xenograft model, clinical observations. The conditions noted are these: 5 mg/kg i.p. once weekly. The class given is in vivo, mouse. The method, then:
as §1
Clinical observations of tumor shape, size and disposition were noted throughout the study.

Series [5] in a line: PAA-glycan ELISA, GcSTn-PAA. It counts as binding. To be noted: 200 ng/well PAA antigen; 1:5 dilutions from 1 μM. The method, then:
18D2 and 18C7 antibodies were further characterized by ELISA comprising antigens other than BSM. ELISAs were carried out according to Example 2, with the exception that ELISA plates were coated with biotinylated polyacrylamide (PAA) particles comprising either AcSTn (AcSTn-PAA), GcSTn (GcSTn-PAA) or Tn (Tn-PAA) as antigens. These particles present the antigens in a multivalent format. Briefly, 96-well ELISA plates were coated with 200 ng/well of each PAA antigen and blocked with PBS with 1% OVA. Antibodies were serially diluted at 1:5 in PBS with 1% OVA using an initial concentration of 1 μM. After blocking, antibodies were added to the plates and plates were incubated for 1.5 hours at room temperature. Binding of anti-STn antibodies was detected using a goat anti-mouse IgG-HRP conjugated antibody (Jackson Immunoresearch Laboratories, West Grove, Pa.). The reaction was developed by addition of HRP substrate and hydrogen peroxide. The reaction was then stopped by the addition of sulfuric acid (1.6 M). Optical densities were measured at 490 nm. A dose-response curve was generated using readings at each concentration tested and a non-linear regression curve was generated with four-parameter modeling to determine EC50 values for each antibody.

The source of these data is patent publication US20180280504A1, “GLYCAN-INTERACTING COMPOUNDS AND METHODS OF USE” (SIAMAB THERAPEUTICS, INC., priority 2014, published 2018).

B1: S3F: 3F1 variable domains combined with IgG2a constant domains; heavy chain SEQ ID NO: 63, light chain SEQ ID NO: 64 (antibody)
heavy: QVQLQQSDAELVKPGASVKISCKASGYTFTDHAIHWVKQKPEQGLDWIGYISPGNGDIKYNEKFKDKVTLTADKSSSTACMHLNSLTSEDSAVYFCKRSLLALDYWGQGTTLTVSSAKTTAPSVYPLAPVCGDTTGSSVTLGCLVKGYFPEPVTLTWNSGSLSSGVHTFPAVLQSDLYTLSSSVTVTSSTWPSQSITCNVAHPASSTKVDKKIEPRGPTIKPCPPCKCPAPNLLGGPSVFIFPPKIKDVLMISLSPIVTCVVVDVSEDDPDVQISWFVNNVEVHTAQTQTHREDYNSTLRVVSALPIQHQDWMSGKEFKCKVNNKDLPAPIERTISKPKGSVRAPQVYVLPPPEEEMTKKQVTLTCMVTDFMPEDIYVEWTNNGKTELNYKNTEPVLDSDGSYFMYSKLRVEKKNWVERNSYSCSVVHEGLHNHHTTKSFSRTPGK
light: DIVMTQSHKFMSTSVGDRVSITCKASQDVGTNIAWYQQKPGRSPKVLIYSASTRHTGVPDRFTGSGSGTDFTLTISNVQSEDLTDYFCQQYSSFPLTFGVGTKLELKRADAAPTVSIFPPSSEQLTSGGASVVCFLNNFYPKDINVKWKIDGSERQNGVLNSWTDQDSKDSTYSMSSTLTLTKDEYERHNSYTCEATHKTSTSPIVKSFNRNEC
With B1, the “body weight course after initial drop” value in series [1] was “remained low”. The “Percent Body Weight Change” value in series [1] (study day 1) is recorded as 0%; in series [1] (study day 5), 1.18%; in series [1] (study day 8), −5.01%; in series [1] (study day 10), −2.53%; in series [1] (study day 15) it was −5.22%; in series [1] (study day 19), −1.33%. Also, the “Percent Body Weight Change” value in series [1] (study day 22) is listed as −0.91%. For the same molecule, in series [2] (ICR SCID mice), the “total tumor volume course” value was “increased at all time points”. For the same molecule, the “Tumor Volume” value was 178.6 mm^3 in series [2] (day 1); 194.3 mm^3 in series [2] (day 4); 244.9 mm^3 in series [2] (day 8); 301.0 mm^3 in series [2] (day 10); 445.1 mm^3 in series [2] (day 15); 609.7 mm^3 in series [2] (day 18). The “Tumor Volume” value in series [2] (day 23) was 775.4 mm^3; in series [2] (day 25), 972.7 mm^3. In addition, the “IHC staining pattern, cancerous tissues” value in series [3] is “STn was present in most cancerous tissues”. Further, the “IHC staining pattern, normal tissues” value in series [3] is reported as “STn expression was rare in normal tissues”. In addition, the “clinical observations of tumors and signs of illness” value in series [4] is given as “necrosing tumors ranging in severity from slight to severe”.

B2: 18C7: anti-STn mouse monoclonal, IgG2c κ, from mouse #4436; VH SEQ ID NO: 4, VL SEQ ID NO: 5 (antibody, V domains shown)
VH: QVTLKESGPGILQPSQTLSLTCSFSGFSLSTFGMGVGWIRQPSGKGLEWLAHIWWDDDKYYNPALKSRLTISKDTSKNQVFLKIANVDTADTATYYCARIAYYYGSERDYWGQGTTLTVSS
VL: QIVLTQSPAIMSASPGEKVTMTCSASSSISYMHWYHQKPGTSPKRWIYDTSKLASGVPARFSGSGSGTSYSLTISSMEAEDAATYYCHQRSSYTFGGGTKLEIKR
As for B2, in series [5], the EC50 is 2.59 nM.
